Data as given in the supplement of paper PMC10567573.

B1: ZNF511 (parent)
chain: FDALDDYEHHYHTLHGNVCSFCKR

Variants of: B1
Assay: protein stability index of a GFP-peptide fusion (GPS, HEK-293T) (PSI 1-6); higher = more stable
Conditions: c terminus: a fixed tail appended
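Further: lentivirally expressed fusions sorted by FACS into six bins by GFP to DsRed ratio, PSI derived from sequencing read proportions per bin multiplied by bin number.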

Protein stability index: each site, then its substitutions
H15: A 3.86 | L 2.6 | P 3.3 | E 4.36 | W 3.3 | S 4.13 | I 3.55 | N 3.96 | Y 3.23 | R 3.83 | T 4.48 | C 3.89 | Q 3.96 | M 3.88 | K 3.61 | G 3.92 | F 2.26 | V 3.73 | D 3.97
Y11: M 4.45 | H 4.14 | L 4.05 | A 4.39 | I 4.2 | S 4.14 | T 4.62 | V 4.49 | F 3.19 | K 4.28 | W 2.34 | R 4.61 | N 4.38 | G 4.01 | Q 4.93 | P 3.22 | C 4.81 | E 4.55 | D 4.64
L14: H 4.24 | M 3.99 | W 3.17 | T 4.04 | K 3.54 | P 4.71 | D 4.33 | C 4.85 | E 4.48 | Y 3.81 | S 4.08 | Q 4.28 | V 4.53 | R 3.63 | N 4.18 | I 3.92 | G 4.22 | A 3.98 | F 3.59
S20: N 3.74 | W 2.63 | Q 3.85 | P 3.54 | M 4.04 | A 3.81 | G 2.7 | E 4.44 | L 3.35 | F 3.67 | Y 4.29 | R 3.27 | V 3.64 | C 3.4 | H 3.56 | K 3.76 | T 3.81 | I 3.83 | D 2.75
D5: Y 3.1 | R 3.5 | I 3.45 | S 3.24 | T 3.7 | Q 3.86 | G 4.12 | K 3.09 | V 3.54 | W 2.98 | C 4 | H 3.9 | P 4.11 | M 3.14 | N 3.98 | F 2.5 | E 3.77 | L 3.18
C19: M 2.63 | V 2.41 | H 3.19 | W 1.92 | P 3.1 | D 3.36 | E 3.21 | Y 2.2 | L 3.71 | S 3.04 | A 3.11 | N 3.13 | F 2.24 | Q 2.92 | I 2.66 | R 2.75 | G 2.9 | K 3.27 | T 3.41
E8: M 2.97 | C 4.43 | V 2.87 | S 3.35 | T 3.67 | Q 3.63 | H 3.63 | K 3.05 | G 3.55 | Y 2.79 | F 2.57 | W 2.69 | L 2.74 | D 3.82 | I 2.51 | N 3.3 | R 3.55 | P 3.81 | A 3.66
C22: H 2.6 | E 3.2 | M 2.85 | F 2.2 | I 2.26 | A 3.11 | P 3 | G 2.37 | K 3.02 | N 3.22 | D 3.29 | L 2.11
H12: G 3.58 | Y 2.48 | W 2.38 | E 2.95 | K 2.58 | P 3.31 | M 2.73 | Q 3.3 | L 2.71 | C 4.18 | N 3.27 | V 3.27 | D 4.41 | T 3.29 | R 3.36 | S 3.12 | F 2.9 | I 2.16 | A 2.96
F21: V 4.45 | E 4.18 | W 4.32 | M 3.71
